Key:
[1] = target: T1, chymase (recombinant, SIGMA) (UniProt P23946); assay: inhibition; settings: 2'-F pyrimidines (U, C); negative control pool, no inhibition
T1 sequence: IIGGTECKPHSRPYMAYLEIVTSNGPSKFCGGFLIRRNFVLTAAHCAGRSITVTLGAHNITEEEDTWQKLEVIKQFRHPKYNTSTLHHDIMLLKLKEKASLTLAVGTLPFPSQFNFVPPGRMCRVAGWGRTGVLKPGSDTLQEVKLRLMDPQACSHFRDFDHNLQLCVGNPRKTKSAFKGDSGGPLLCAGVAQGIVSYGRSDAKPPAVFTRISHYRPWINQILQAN

[2] = target: T2, chymase (native, human skin mast cell) (Homo sapiens, UniProt P23946 P23946:22-247); assay: inhibition; angiotensin I substrate, 37 C; settings: tags: Calbiochem Human Skin
T2 sequence: T1 sequence
Description: (§1) Whether the nucleic acids shown by SEQ ID NO: 9 and 10 inhibit the enzyme activity of chymase was determined by the following method. Angiotensin I is converted by chymase to angiotensin II, during which a peptide fragment His-Leu is released. Since the peptide His-Leu is fluorescently derivatized by o-phthalaldehyde, its fluorescence intensity can be quantitatively measured.
(§2) The total volume of solution for an enzyme reaction in the assay was set to 50 μL, and the reaction was performed in solution C buffer. At first, native (manufactured by Calbiochem) was diluted with solution C to give 5 μL thereof. Here, the native is chymase purified from human skin mast cell. […] The whole mixture was centrifuged at 4° C., 14000 rpm for 10 min, and the supernatant (30 μL) was used for the next fluorescence induction reaction.
(§3) The above-mentioned supernatant (30 μL) was added to a 96 well plate (black, manufactured by Costar), a solution (15 μL) of 2% o-phthalaldehyde (manufactured by SIGMA) in methanol and 0.3M NaOH solution (170 μL) were added to each well, and the mixture was incubated at room temperature for 10 min. […] The plate was set on a microplate reader SpectraMax190 (manufactured by Molecular device) and the fluorescence intensity was measured at an excitation wavelength of 355 nm and a fluorescence wavelength of 460 nm.

[3] = target: T3, chymase (recombinant, SIGMA) (UniProt P23946 P23946:22-247); assay: inhibition; Suc-AAPF-MCA substrate, 37 C, 1.8 mM Ca, 0.8 mM Mg, pH 7.6; settings: tags: SIGMA recombinant
T3 sequence: T1 sequence
Description: By detecting the fluorescence of this AMC, the enzyme activity of chymase can be determined. The assay was performed using a 96-well plate (F16 Black Maxisorp Fluoronunc, manufactured by Nunc), with a reaction mixture volume of 100 μL, in solution C as a buffer solution. Here, the solution C is a mixed solution of 145 mM sodium chloride, 5.4 mM potassium chloride, 1.8 mM calcium chloride, 0.8 mM magnesium chloride, 20 mM Tris (pH 7.6), and 0.05% Tween20. First, nucleic acid was serially diluted in solution C to obtain 50 μL solutions. After 10 μL of the 1 mM substrate prepared in solution C was added thereto, the plate was set to the microplate reader SpectraMax190 (manufactured by Molecular Devices Corporation), and incubated at 37° C. for 5 minutes. […] The plate containing the reaction mixture was set to the microplate reader SpectraMax190 (manufactured by Molecular Devices Corporation), and examined for time-dependent changes in the fluorescence intensity at 37° C. for 5 minutes (or 30 minutes) (excitation wavelength 380 nm, detection wavelength 460 nm). A linear approximation of the increase in the fluorescence of the AMC released from the substrate by chymase activity was generated, and its slope was taken as the initial velocity […]. […]

[4] = target: T2, chymase (native, human skin mast cell); assay: inhibition; angiotensin I substrate, 37 C, 1.8 mM Ca, 0.8 mM Mg, pH 7.6; settings: tags: Calbiochem Human Skin
Description: as §1, §2, §3

[5] = target: T3, chymase (recombinant, SIGMA); assay: inhibition; Suc-AAPF-MCA substrate, 0.005 ug chymase, single measurement; settings: tags: SIGMA recombinant
Description: (§4) The assay was performed using a 96-well plate (F16 Black Maxisorp Fluoronunc, manufactured by Nunc), with a reaction mixture volume of 100 μL, in solution C as a buffer solution. Here, the solution C is a mixed solution of 145 mM sodium chloride, 5.4 mM potassium chloride, 1.8 mM calcium chloride, 0.8 mM magnesium chloride, 20 mM Tris (pH 7.6), and 0.05% Tween20. First, nucleic acid was serially diluted in solution C to obtain 50 μL solutions. After 10 μL of the 1 mM substrate prepared in solution C was added thereto, the plate was set to the microplate reader SpectraMax190 (manufactured by Molecular Devices Corporation), and incubated at 37° C. for 5 minutes. Separately, 0.05 μg of chymase (recombinant, manufactured by SIGMA) was diluted in solution C to obtain a 40 μL chymase solution, and incubated at 37° C. for 5 minutes. The chymase solution was added to the mixture of the nucleic acid and substrate to initiate an enzyme reaction. The final chymase concentration in the reaction mixture was 16.7 nM, the final substrate concentration being 100 μM. The plate containing the reaction mixture was set to the microplate reader SpectraMax190 (manufactured by Molecular Devices Corporation), and examined for time-dependent changes in the fluorescence intensity at 37° C. for 5 minutes (or 30 minutes) (excitation wavelength 380 nm, detection wavelength 460 nm). A linear approximation of the increase in the fluorescence of the AMC released from the substrate by chymase activity was generated, and its slope was taken as the initial velocity […]. For control, samples were treated and analyzed in the same manner in two cases: use of a 30N (a nucleotide of 30 consecutive bases represented by N; N is A, G, C or T) nucleic acid pool (negative control), and use of chymostatin, a known chymotrypsin-like serine protease inhibitor (positive control). Taking the initial reaction velocity without the nucleic acid and inhibitor (V₀) as a 100% enzyme activity, the inhibitory rate of each test substance was calculated using the following equation: […]
In the evaluation of SEQ ID NO: 21-25, a method similar to the evaluation method of inhibitory activity against chymase shown in Example 1 by using MCA as a substrate except that the amount chymase was changed from 0.05 μg to 0.005 μg was used for measurement.

[6] = target: T3, chymase (recombinant, SIGMA); assay: inhibition; Suc-AAPF-MCA substrate, 37 C; settings: tags: SIGMA recombinant
Description: as §4, with “By detecting the fluorescence of this AMC, the enzyme activity of chymase can be determined. The assay” for “The assay”

[7] = target: T2, chymase (native, human skin mast cell); assay: inhibition; angiotensin I substrate, 37 C; settings: tags: Calbiochem Human Skin; remark: listed apart in the source
Description: as §2, with “cell. The nucleic acid was serially diluted with solution C at a concentration of 0.0027-2 μM to give 25 μL thereof. The chymase solution (5 μL) and the nucleic acid solution (25 μL) were mixed, and the mixture was incubated at 37° C. for 5 min. On the other hand, […] angiotensin I (manufactured by PEPTIDE […], INC.) was prepared in solution C to give 20 μL thereof, which was incubated at 37° C. for 5 min.” for “cell.”
as §3, with “nm. […]” for “nm.”

[8] = target: T2, chymase (native, human skin mast cell); assay: inhibition; angiotensin I substrate; second G of GGGG 2'-OMe; settings: tags: Calbiochem Human Skin
Description: as §2, with “cell. The nucleic acid was serially diluted with solution C at a concentration of 0.0027-2 μM to give 25 μL thereof. The chymase solution (5 μL) and the nucleic acid solution (25 μL) were mixed, and the mixture was incubated at 37° C. for 5 min. On the other hand, […] angiotensin I (manufactured by PEPTIDE […], INC.) was prepared in solution C to give 20 μL thereof, which was incubated at 37° C. for 5 min.” for “cell.”
as §3, with “nm. […]” for “nm.”

[9] = target: T2, chymase (native, human skin mast cell); assay: inhibition; angiotensin I substrate; table prints length 32 though SEQ 33 is 31 nt; settings: tags: Calbiochem Human Skin
Description: (§5) The total volume of solution for an enzyme reaction in the assay was set to 50 μL, and the reaction was performed in solution C buffer. At first, native (manufactured by Calbiochem) was diluted with solution C to give 5 μL thereof. Here, the native is chymase purified from human skin mast cell. The nucleic acid was serially diluted with solution C at a concentration of 0.0027-2 μM to give 25 μL thereof. The chymase solution (5 μL) and the nucleic acid solution (25 μL) were mixed, and the mixture was incubated at 37° C. for 5 min. On the other hand, […] angiotensin I (manufactured by PEPTIDE […], INC.) was prepared in solution C to give 20 μL thereof, which was incubated at 37° C. for 5 min. The angiotensin I solution was added to a mixture of chymase and nucleic acid to start an enzyme reaction. The final chymase concentration of the reaction solution was 0.5 nM, and the final substrate concentration was 50 μM. After reaction at 37° C. for 90 min, ice-cooled 30% trichloroacetic acid solution (25 μL) was added to quench the reaction. The whole mixture was centrifuged at 4° C., 14000 rpm for 10 min, and the supernatant (30 μL) was used for the next fluorescence induction reaction.

[10] = target: T2, chymase (native, human skin mast cell); assay: inhibition; angiotensin I substrate; 40 kDa PEG; settings: tags: Calbiochem Human Skin
Description: as §5, with “The angiotensin I solution was added to a mixture of chymase and nucleic acid to start an enzyme reaction. The final chymase concentration of the reaction solution was 0.5 nM, and the final substrate concentration was 50 μM. After reaction at 37° C. for 90 min, ice-cooled 30% trichloroacetic acid solution (25 μL) was added to quench the reaction.” left out
as §3, with “nm. […]” for “nm.”

[11] = target: T2, chymase (native, human skin mast cell); assay: inhibition; angiotensin I substrate; second G of GGGG 2'-OMe; settings: tags: Calbiochem Human Skin; remark: listed apart in the source
Description: as §5, with “The angiotensin I solution was added to a mixture of chymase and nucleic acid to start an enzyme reaction. The final chymase concentration of the reaction solution was 0.5 nM, and the final substrate concentration was 50 μM. After reaction at 37° C. for 90 min, ice-cooled 30% trichloroacetic acid solution (25 μL) was added to quench the reaction.” left out
as §3, with “nm. […]” for “nm.”

UCACACUAGCACGCAUAGGNNNNNNNNNNNNNNNNNNNNNNNNNNNNNNCAUCUGACCUCUCUCCUGCUCCC [30N nucleic acid pool]
IC50 [1]: > 500 nM

B1: SEQ ID NO: 10 (ssRNA)
RNA: GGGAACGAAGCGACAGACCGAAUCAGAAGUUCAACAUGGACAUAACAUCGAUGGGGUGUCAAGUACUGACGACAGA
modifications: 2'-F pyrimidines (U, C); purines 2'-OH
IC50 [2]: 0.43 nM

B2: SEQ ID NO: 1 (ssRNA)
RNA: GGGAGCAGGAGAGAGGUCAGAUGAGCAUGCUUUUUGGUAACCGAUAAUGGGGGCCUAUGCGUGCUAGUGUGA
modifications: 2'-F pyrimidines (U, C); purines 2'-OH
IC50 [3]: 41 nM

B3: SEQ ID NO: 9 (ssRNA)
RNA: GGGAACGAAGCGACAGACGUUCCAGCGUCUAAUACGUGAAUAACCUGAUCGUAGGGGGUUCAAGUACUGAGGACAGA
modifications: 2'-F pyrimidines (U, C); purines 2'-OH
IC50 [4]: 0.22 nM

GGCAGAUGAUCGGACAUAACAGUAGAUAGAGUUAAAACUGGGGUGUCAA (ssRNA, 2'-F pyrimidines (inferred)) [SEQ ID NO: 23]
IC50 [5]: 7.8 nM

B4: SEQ ID NO: 2 (ssRNA)
RNA: GGGAGCAGGAGAGAGGUCAGAUGAUCGGACAUAACAUUGUUGGGGUGUCAAGGCCUAUGCGUGCUAGUGUGA
modifications: 2'-F pyrimidines (U, C); purines 2'-OH
IC50 [6]: 31 nM
IC50 [7]: 10 nM

GGCAGAUGAUCGGACAUAACAAGAUAGAGUUAAAUGGGGUGUCAA (ssRNA, 2'-F pyrimidines (inferred)) [SEQ ID NO: 25]
IC50 [5]: 5.8 nM

GGCAGAUGAUCGGACAUAACAUAGAUAGAGUUAAAAUGGGGUGUCAA (ssRNA, 2'-F pyrimidines (inferred)) [SEQ ID NO: 24]
IC50 [5]: 3.7 nM

B5: SEQ ID NO: 17(1) (ssRNA)
RNA: GAUGAUCGGACAUAACAUUGUUGGGGUGUCAA
modifications: GAU(F)GAU(F)C(F)GGAC(F)AU(F)AAC(F)AU(F)U(F)GU(F)U(F)G(M)G(M)GGU(F)GU(F)C(F)AA (F=2'-F, M=2'-OMe)
IC50 [8]: 44.4 nM

B6: SEQ ID NO: 17(3) (ssRNA)
RNA: B5 RNA
modifications: idT-G(M)A(M)U(F)G(M)A(M)U(F)C(F)G(M)G(M)A(M)C(F)A(M)U(F)AAC(F)AU(F)U(F)G(M)U(F)U(F)GG(M)G(M)G(M)U(F)G(M)U(F)C(F)A(M)A(M)-idT (F=2'-F, M=2'-OMe)
IC50 [8]: 5.66 nM

AUGAUCGGACAUAACUAAUUAGGGGUGUCAA (ssRNA, 2'-F pyrimidines (U, C); purines 2'-OH) [SEQ ID NO: 33]
IC50 [9]: 0.21 nM

B7: SEQ ID NO: 33(18) (mixed)
RNA: AUGAUCGGACAUAACUAAUUAGGGGUGUCAA
modifications: PEG-A(M)U(M)G(M)A(M)U(F)C(F)G(M)G(M)A(M)C(M)A(M)U(M)AAC(M)U(F)A(M)A(M)U(M)TA(M)G(M)GG(M)G(M)TG(M)U(M)C(M)A(M)A(M)-idT (F=2'-F, M=2'-OMe, PEG=40 kDa branched PEG)
IC50 [10]: 0.109 nM

B8: SEQ ID NO: 33(9) (mixed)
RNA: B7 RNA
modifications: idT-A(M)U(M)G(M)A(M)U(F)C(F)G(M)G(M)A(M)C(M)A(M)U(M)AAC(M)U(F)A(M)A(M)U(M)U(M)A(M)G(M)G(M)G(M)G(M)tG(M)U(M)C(M)A(M)A(M)-idT (F=2'-F, M=2'-OMe)
IC50 [11]: 1.35 nM

From patent US20210002644, “ANTI-CHYMASE APTAMER AND USE FOR SAME” (RIBOMIC INC., published 2021)
